In PMC4810121, “Proteomics Analysis Reveals Novel RASSF2 Interaction Partners” (Cancers, 2016):

Biological target: T1, RASSF2 (expression construct precipitated with anti-Flag) (UniProt P50749 1-326)
T1 construct: RASSF2; The methods describe no Flag-tagged construct; That RASSF2 carried the Flag tag is surmised, because C1QBP is the GFP-tagged partner and the blot used anti-Flag and anti-GFP; source: HEK-293T, transfected, in lysate
T1 sequence (looked up): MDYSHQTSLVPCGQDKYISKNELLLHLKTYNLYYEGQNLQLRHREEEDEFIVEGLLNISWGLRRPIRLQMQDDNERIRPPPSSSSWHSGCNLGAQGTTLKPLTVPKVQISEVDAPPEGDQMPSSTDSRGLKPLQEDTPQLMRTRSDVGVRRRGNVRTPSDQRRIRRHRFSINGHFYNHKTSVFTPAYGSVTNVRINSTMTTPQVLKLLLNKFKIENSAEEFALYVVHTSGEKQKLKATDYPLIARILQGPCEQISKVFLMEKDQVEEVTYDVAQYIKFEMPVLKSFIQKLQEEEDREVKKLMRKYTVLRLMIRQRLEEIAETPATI
Assay: co-IP; HEK-293T co-transfected with RASSF2, C1QBP and with or without activated K-Ras for 24 hours; lysates immunoprecipitated with anti-Flag, blotted with anti-Flag and anti-GFP
Conditions: partners not purified

fold change of the co-precipitate with activated Ras against without: ~2 fold
B1: GFP-C1QBP (natural protein, UniProt Q07021 74-282, looked up)
chain: LHTDGDKAFVDFLSDEIKEERKIQKHKTLPKMSGGWELELNGTEAKLVRKVAGEKITVTFNINNSIPPTFDGEEEPSQGQKVEEQEPELTSTPNFVVEVIKNDDGKKALVLDCHYPEDEVGQEDEAESDIFSIREVSFQSTGESEWKDTNYTLNTDSLDWALYDHLMDFLADRGVDNTFADELVELSTALEHQEYITFLEDLKSFVKSQ
notes: C1QBP; cDNA from GeneCopoeia, PCR amplified and cloned into pEGFP-C1; source: HEK-293T, transfected, in lysate
